Laboratory results taken from publication PMC4832331, “Structural insights into the Escherichia coli lysine decarboxylases and molecular determinants of interaction with the AAA+ ATPase RavA” (Scientific Reports, 2016).

B1: Escherichia coli inducible lysine decarboxylase LdcI (enzyme, E. coli)
chain: MNVIAILNHMGVYFKEEPIRELHRALERLNFQIVYPNDRDDLLKLIENNARLCGVIFDWDKYNLELCEEISKMNENLPLYAFANTYSTLDVSLNDLRLQISFFEYALGAAEDIANKIKQTTDEYINTILPPLTKALFKYVREGKYTFCTPGHMGGTAFQKSPVGSLFYDFFGPNTMKSDISISVSELGSLLDHSGPHKEAEQYIARVFNADRSYMVTNGTSTANKIVGMYSAPAGSTILIDRNCHKSLTHLMMMSDVTPIYFRPTRNAYGILGGIPQSEFQHATIAKRVKETPNATWPVHAVITNSTYDGLLYNTDFIKKTLDVKSIHFDSAWVPYTNFSPIYEGKCGMSGGRVEGKVIYETQSTHKLLAAFSQASMIHVKGDVNEETFNEAYMMHTTTSPHYGIVASTETAAAMMKGNAGKRLINGSIERAIKFRKEIKRLRTESDGWFFDVWQPDHIDTTECWPLRSDSTWHGFKNIDNEHMYLDPIKVTLLTPGMEKDGTMSDFGIPASIVAKYLDEHGIVVEKTGPYNLLFLFSIGIDKTKALSLLRALTDFKRAFDLNLRVKNMLPSLYREDPEFYENMRIQELAQNIHKLIVHHNLPDLMYRAFEVLPTMVMTPYAAFQKELHGMTEEVYLDEMVGRINANMILPYPPGVPLVMPGEMITEESRPVLEFLQMLCEIGAHYPGFETDIHGAYRQADGRYTVKVLKEESKK
notes: LdcI (CadA), inducible lysine decarboxylase of E. coli; wing domain 1-129, core domain 130-563, CTD 564-715; Decamer of two pentameric rings; The whole enzyme (715 residues) is likely; PLP cofactor was in the buffers; also called CadA; LdcIa (at pH 6.2); copies: 10
B2: LdcIC chimera (LdcI with the C-terminal β-sheet of LdcC) (enzyme, E. coli, UniProt P0A9H3 1-630, looked up)
chain: MNVIAILNHMGVYFKEEPIRELHRALERLNFQIVYPNDRDDLLKLIENNARLCGVIFDWDKYNLELCEEISKMNENLPLYAFANTYSTLDVSLNDLRLQISFFEYALGAAEDIANKIKQTTDEYINTILPPLTKALFKYVREGKYTFCTPGHMGGTAFQKSPVGSLFYDFFGPNTMKSDISISVSELGSLLDHSGPHKEAEQYIARVFNADRSYMVTNGTSTANKIVGMYSAPAGSTILIDRNCHKSLTHLMMMSDVTPIYFRPTRNAYGILGGIPQSEFQHATIAKRVKETPNATWPVHAVITNSTYDGLLYNTDFIKKTLDVKSIHFDSAWVPYTNFSPIYEGKCGMSGGRVEGKVIYETQSTHKLLAAFSQASMIHVKGDVNEETFNEAYMMHTTTSPHYGIVASTETAAAMMKGNAGKRLINGSIERAIKFRKEIKRLRTESDGWFFDVWQPDHIDTTECWPLRSDSTWHGFKNIDNEHMYLDPIKVTLLTPGMEKDGTMSDFGIPASIVAKYLDEHGIVVEKTGPYNLLFLFSIGIDKTKALSLLRALTDFKRAFDLNLRVKNMLPSLYREDPEFYENMRIQELAQNIHKLIVHHNLPDLMYRAFEVLPTMVMTPYAAFQKELHGEVETIALEQLVGRINANMILPYPPGVPLVMPGEMITEESRPVLEFLQMLCEIGAHYPGFETDIHGAKQDEDGVYRVRVLKMAG
notes: E. coli LdcI up to the first exchanged stretch; E. coli LdcC, first strand region of the C-terminal β-sheet; E. coli LdcI between the two exchanged stretches; E. coli LdcC from 697 to the C-terminus, second strand region of the C-terminal β-sheet; Synthetic ldcIC gene of 2148 bp (GenScript) in the pET-TEV vector; source: E. coli Rosetta 2 (DE3), purified (Ni-NTA, TEV cleavage, second Ni-NTA, …)
B3: Escherichia coli biosynthetic lysine decarboxylase LdcC (enzyme, E. coli)
chain: MNIIAIMGPHGVFYKDEPIKELESALVAQGFQIIWPQNSVDLLKFIEHNPRICGVIFDWDEYSLDLCSDINQLNEYLPLYAFINTHSTMDVSVQDMRMALWFFEYALGQAEDIAIRMRQYTDEYLDNITPPFTKALFTYVKERKYTFCTPGHMGGTAYQKSPVGCLFYDFFGGNTLKADVSISVTELGSLLDHTGPHLEAEEYIARTFGAEQSYIVTNGTSTSNKIVGMYAAPSGSTLLIDRNCHKSLAHLLMMNDVVPVWLKPTRNALGILGGIPRREFTRDSIEEKVAATTQAQWPVHAVITNSTYDGLLYNTDWIKQTLDVPSIHFDSAWVPYTHFHPIYQGKSGMSGERVAGKVIFETQSTHKMLAALSQASLIHIKGEYDEEAFNEAFMMHTTTSPSYPIVASVETAAAMLRGNPGKRLINRSVERALHFRKEVQRLREESDGWFFDIWQPPQVDEAECWPVAPGEQWHGFNDADADHMFLDPVKVTILTPGMDEQGNMSEEGIPAALVAKFLDERGIVVEKTGPYNLLFLFSIGIDKTKAMGLLRGLTEFKRSYDLNLRIKNMLPDLYAEDPDFYRNMRIQDLAQGIHKLIRKHDLPGLMLRAFDTLPEMIMTPHQAWQRQIKGEVETIALEQLVGRVSANMILPYPPGVPLLMPGEMLTKESRTVLDFLLMLCSVGQHYPGFETDIHGAKQDEDGVYRVRVLK
notes: LdcC, biosynthetic lysine decarboxylase of E. coli; Decamer; PLP cofactor was in the buffers; also called constitutive lysine decarboxylase; copies: 10
B4: Escherichia coli AAA+ ATPase RavA (enzyme)
chain: not shown
notes: RavA, AAA+ ATPase of E. coli; It was mixed in the presence of 2 mM ADP and 10 mM MgCl2
B5: LdcCI chimera (LdcC with the C-terminal β-sheet of LdcI) (enzyme, E. coli, UniProt P52095 1-630, looked up)
chain: MNIIAIMGPHGVFYKDEPIKELESALVAQGFQIIWPQNSVDLLKFIEHNPRICGVIFDWDEYSLDLCSDINQLNEYLPLYAFINTHSTMDVSVQDMRMALWFFEYALGQAEDIAIRMRQYTDEYLDNITPPFTKALFTYVKERKYTFCTPGHMGGTAYQKSPVGCLFYDFFGGNTLKADVSISVTELGSLLDHTGPHLEAEEYIARTFGAEQSYIVTNGTSTSNKIVGMYAAPSGSTLLIDRNCHKSLAHLLMMNDVVPVWLKPTRNALGILGGIPRREFTRDSIEEKVAATTQAQWPVHAVITNSTYDGLLYNTDWIKQTLDVPSIHFDSAWVPYTHFHPIYQGKSGMSGERVAGKVIFETQSTHKMLAALSQASLIHIKGEYDEEAFNEAFMMHTTTSPSYPIVASVETAAAMLRGNPGKRLINRSVERALHFRKEVQRLREESDGWFFDIWQPPQVDEAECWPVAPGEQWHGFNDADADHMFLDPVKVTILTPGMDEQGNMSEEGIPAALVAKFLDERGIVVEKTGPYNLLFLFSIGIDKTKAMGLLRGLTEFKRSYDLNLRIKNMLPDLYAEDPDFYRNMRIQDLAQGIHKLIRKHDLPGLMLRAFDTLPEMIMTPHQAWQRQIKGMTEEVYLDEMVGRVSANMILPYPPGVPLLMPGEMLTKESRTVLDFLLMLCSVGQHYPGFETDIHGAYRQADGRYTVKVLKEESKK
notes: E. coli LdcC up to the first exchanged stretch; E. coli LdcI, first strand region of the C-terminal β-sheet; E. coli LdcC between the two exchanged stretches; E. coli LdcI from 697 to the C-terminus, second strand region of the C-terminal β-sheet; Synthetic ldcCI gene of 2154 bp (GenScript) in the pET-TEV vector; source: E. coli Rosetta 2 (DE3), purified (Ni-NTA, TEV cleavage, second Ni-NTA, …)

Legend:
[1] = target: the molecule itself; experiment: cryo-EM structure; LdcI alone, 2 mg/ml, 25 mM MES, 100 mM NaCl, 0.2 mM PLP, 1 mM DTT, pH 6.2; no ppGpp
[2] = target: the molecule itself; experiment: not stated; purified chimeras alone; decamers 'visually indistinguishable from the wild-type proteins'
[3] = target: the molecule itself; experiment: cryo-EM structure; LdcC alone, 2 mg/ml, 25 mM HEPES, 100 mM NaCl, 0.2 mM PLP, 1 mM DTT, pH 7.2 (results say pH 7.5); no ppGpp
[4] = target: B1; experiment: negative stain EM; 0.4 mg/ml RavA mixed with 0.3 mg/ml LdcI, LdcC, LdcCI or LdcIC; 2 mM ADP, 10 mM MgCl2, 20 mM Hepes, 150 mM NaCl, pH 7.4; 10 min at room temperature; 2% uranyl acetate; settings: both partners purified
[5] = target: B4; experiment: as above; settings: both partners purified

Binder: B1
stoichiometry N [1]: 10

Binder: B2
stoichiometry N [2]: 10

Binder: B3
stoichiometry N [3]: 10

Binder: B4
binding result [4]: binds

Binder: B5
binding result [5]: binds | stoichiometry N [2]: 10
